Consider 3 molecules from PMC8421416, “Structure of the native pyruvate dehydrogenase complex reveals the mechanism of substrate insertion” (Nature Communications, 2021).

By stoichiometry N is commonly meant a count of units in the complex or per binding partner.

B2: dihydrolipoyl transacetylase (E2p) of the E. coli pyruvate dehydrogenase complex (enzyme, E. coli K12, UniProt P06959 1-630, looked up)
chain: MAIEIKVPDIGADEVEITEILVKVGDKVEAEQSLITVEGDKASMEVPSPQAGIVKEIKVSVGDKTQTGALIMIFDSADGAADAAPAQAEEKKEAAPAAAPAAAAAKDVNVPDIGSDEVEVTEILVKVGDKVEAEQSLITVEGDKASMEVPAPFAGTVKEIKVNVGDKVSTGSLIMVFEVAGEAGAAAPAAKQEAAPAAAPAPAAGVKEVNVPDIGGDEVEVTEVMVKVGDKVAAEQSLITVEGDKASMEVPAPFAGVVKELKVNVGDKVKTGSLIMIFEVEGAAPAAAPAKQEAAAPAPAAKAEAPAAAPAAKAEGKSEFAENDAYVHATPLIRRLAREFGVNLAKVKGTGRKGRILREDVQAYVKEAIKRAEAAPAATGGGIPGMLPWPKVDFSKFGEIEEVELGRIQKISGANLSRNWVMIPHVTHFDKTDITELEAFRKQQNEEAAKRKLDVKITPVVFIMKAVAAALEQMPRFNSSLSEDGQRLTLKKYINIGVAVDTPNGLVVPVFKDVNKKGIIELSRELMTISKKARDGKLTAGEMQGGCFTISSIGGLGTTHFAPIVNAPEVAILGVSKSAMEPVWNGKEFVPRLMLPISLSFDHRVIDGADGARFITIINNTLSDIRRLVM
modifications: lipoylated residues K41, K144 and K245 (mass spectrometry); dihydrolipoyllysine modelled at K245 in the structure
notes: dihydrolipoyl transacetylase (E2p), aceF gene, E. coli strain K12; native full-length protein, modelled catalytic domain starts at P384; It was modelled as the innermost one (K245), from PDB 1qjo; also called dihydrolipoyl acyltransferase; E2p core; source: endogenous, E. coli K12; copies: 24

For data set [1], the target named is T1, dihydrolipoyl transacetylase (E2p) core of E. coli PDHc (Escherichia coli, UniProt P06959).
T1 construct: gene aceF; native full-length E2p in native PDHc; catalytic domain modelled from P384 plus one lipoyl domain (averaged, modelled as innermost, K245); octahedral 24-mer
T1 sequence (P06959 2-630): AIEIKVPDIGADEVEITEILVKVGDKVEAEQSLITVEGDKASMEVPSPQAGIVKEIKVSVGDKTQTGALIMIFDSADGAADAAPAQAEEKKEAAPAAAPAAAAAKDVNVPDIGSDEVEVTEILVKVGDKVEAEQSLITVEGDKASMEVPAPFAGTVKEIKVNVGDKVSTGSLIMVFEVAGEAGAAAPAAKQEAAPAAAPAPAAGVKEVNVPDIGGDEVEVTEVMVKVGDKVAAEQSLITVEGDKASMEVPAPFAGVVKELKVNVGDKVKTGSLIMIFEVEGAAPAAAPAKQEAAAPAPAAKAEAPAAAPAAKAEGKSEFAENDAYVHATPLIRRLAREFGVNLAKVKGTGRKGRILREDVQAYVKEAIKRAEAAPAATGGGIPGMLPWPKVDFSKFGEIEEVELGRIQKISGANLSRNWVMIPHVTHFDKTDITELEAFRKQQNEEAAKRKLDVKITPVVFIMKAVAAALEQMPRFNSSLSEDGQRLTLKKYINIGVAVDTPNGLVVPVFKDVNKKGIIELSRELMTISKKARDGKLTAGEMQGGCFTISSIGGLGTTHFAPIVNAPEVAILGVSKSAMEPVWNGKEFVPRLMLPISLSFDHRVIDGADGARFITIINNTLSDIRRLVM
Description: cryo-EM structure, […] A. It counts as binding. The settings on record: covalent: moiety attached by amide bond to K245 of the lipoyl domain of the same protein (dihydrolipoyllysine), not the free amide; bound in E2p active site channel; no CoA; reduced state modelled, ox.

Data set [2] has as its target B2. Nature of the data set: cryo-EM structure; whole native PDHc (approx. 4.5 MDa) isolated from E. coli K12; low-resolution reconstruction without symmetry; 2D classes of the outer shell after subtraction of the E2p core. The settings on record: both partners purified.
In data set [3] the target is T2, pyruvate dehydrogenase (E1p) of the E. coli pyruvate dehydrogenase complex (E. coli K12 (endogenous), UniProt P0AFG8 1-887).
T2 construct: pyruvate dehydrogenase E1 component (E1p), E. coli K12, endogenous subunit of the native PDHc; source: endogenous, E. coli K12
T2 sequence (P0AFG8 whole entry, one chain of several): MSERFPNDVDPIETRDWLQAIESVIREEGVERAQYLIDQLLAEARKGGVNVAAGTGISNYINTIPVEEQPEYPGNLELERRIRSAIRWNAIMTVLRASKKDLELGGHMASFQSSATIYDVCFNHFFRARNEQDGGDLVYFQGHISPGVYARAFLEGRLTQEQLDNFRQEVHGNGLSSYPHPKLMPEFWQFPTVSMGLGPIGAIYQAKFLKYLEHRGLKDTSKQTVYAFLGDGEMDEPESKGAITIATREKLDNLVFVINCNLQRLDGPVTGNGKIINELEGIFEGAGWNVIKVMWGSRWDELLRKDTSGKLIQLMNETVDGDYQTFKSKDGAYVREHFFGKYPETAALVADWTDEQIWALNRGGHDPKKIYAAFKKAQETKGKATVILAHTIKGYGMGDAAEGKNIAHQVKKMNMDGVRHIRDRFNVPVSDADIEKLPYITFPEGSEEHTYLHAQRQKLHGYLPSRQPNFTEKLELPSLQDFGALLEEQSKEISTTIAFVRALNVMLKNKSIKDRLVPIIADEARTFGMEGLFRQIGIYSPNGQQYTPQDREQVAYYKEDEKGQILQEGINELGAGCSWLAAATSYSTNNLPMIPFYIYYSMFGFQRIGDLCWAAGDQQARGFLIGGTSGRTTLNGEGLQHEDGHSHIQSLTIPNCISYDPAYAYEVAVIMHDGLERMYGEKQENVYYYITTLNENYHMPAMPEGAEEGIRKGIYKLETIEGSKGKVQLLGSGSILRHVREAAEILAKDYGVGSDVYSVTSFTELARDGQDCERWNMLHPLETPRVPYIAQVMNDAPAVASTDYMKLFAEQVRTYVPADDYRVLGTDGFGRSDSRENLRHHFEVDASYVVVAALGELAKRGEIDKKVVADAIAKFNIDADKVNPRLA
The description is as above. Particulars: both partners purified.

Data set [4] deals with the molecule itself. Nature of the data set: cryo-EM structure; native E2p core of PDHc isolated from E. coli K12, resting state without substrates; 20 mM Hepes pH 7.5, 150 mM NaCl; O symmetry imposed, 3.16 Å.

Regarding `NC(=O)CCCC[C@@H](S)CCS` [dihydrolipoamide], the “cryo-EM structure, 3.16 A” value in data set [1] was “we modeled the prosthetic group as dihydrolipoamide, i.e., the product of the E2p-catalyzed reaction”.

B1: dihydrolipoyl dehydrogenase (E3) of the E. coli pyruvate dehydrogenase complex (enzyme, E. coli K12 (endogenous), UniProt P0A9P0 1-474, looked up)
chain: MSTEIKTQVVVLGAGPAGYSAAFRCADLGLETVIVERYNTLGGVCLNVGCIPSKALLHVAKVIEEAKALAEHGIVFGEPKTDIDKIRTWKEKVINQLTGGLAGMAKGRKVKVVNGLGKFTGANTLEVEGENGKTVINFDNAIIAAGSRPIQLPFIPHEDPRIWDSTDALELKEVPERLLVMGGGIIGLEMGTVYHALGSQIDVVEMFDQVIPAADKDIVKVFTKRISKKFNLMLETKVTAVEAKEDGIYVTMEGKKAPAEPQRYDAVLVAIGRVPNGKNLDAGKAGVEVDDRGFIRVDKQLRTNVPHIFAIGDIVGQPMLAHKGVHEGHVAAEVIAGKKHYFDPKVIPSIAYTEPEVAWVGLTEKEAKEKGISYETATFPWAASGRAIASDCADGMTKLIFDKESHRVIGGAIVGTNGGELLGEIGLAIEMGCDAEDIALTIHAHPTLHESVGLAAEVFEGSITDLPNPKAKKK
notes: dihydrolipoyl dehydrogenase (E3), E. coli K12, endogenous subunit of the native PDHc; source: endogenous, E. coli K12
As for B1, the binding result in data set [2] is “binds”.

Turning to B2, the binding result in data set [3] is listed as “binds”. Also, the “stoichiometry N” value in data set [4] was found to be 24.
